From US20080118919A1

Target: B42 activation domain-EE34 prey fusion protein (yeast, pJG4-5)
Assay: cell-based or functional assay

Substance: λ cI-RR34 bait fusion protein (from UniProt P03034 1-237)
- β-glucuronidase reporter activity with MU-gluc substrate, combination 6 relative to combination 5, yeast two-hybrid (fold higher than combination 5): 10
